# In the supplement of paper PMC12042874:
# ± gives the uncertainty stated by the source.
# Assay: amyloid nucleation score (Sup35N fusion, yeast selection) (log enrichment); library NNK3; higher = more nucleation; inactive = no reads after selection
# Method in brief: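 Output and input plasmid inserts were sequenced by Illumina after psi-negative yeast carrying Sup35N fused to peptides of 20 random codons had been induced 24 hours with 100 μM copper sulfate and grown 7 days at 30°C on medium lacking adenine and uracil. The nucleation score is the DiMSum log enrichment of output over input reads, centred on the mode score of non-aggregating sequences. Sequences with under 100 input reads were excluded.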
row,Substance,amyloid nucleation score
1,YPLDTVGFWEESKLFVGRGG,inactive
2,VIANVKIMTFFMAFSAVHTM,1.48 ± 0.13
3,ISRAVRILVVFDEVWMCSDG,inactive
4,FCAVALFFNTSVSFIDRSLP,1.66 ± 0.083
5,RRNDRYVCFAMMSRRSGVYL,inactive
6,SFFRMSFC,2.91 ± 0.06
7,GTYLKNF,inactive
8,RSILRNSLSTQMHIGSVSLM,inactive
9,CDSTPYFLMGSWLG,inactive
10,MVREFTQNSKVCSTVLCDGV,inactive
11,HYWEVYLGTCLRAQDVQER,1.57 ± 0.097
12,KYNWLNKVSTIGTSKGSSIG,inactive
13,GPSSMINNVDLSCFSF,inactive
14,GLGPSCSQYKP,inactive
15,SGSLHACLALWTLTTYCVST,inactive
16,NSGWWRVKHNTSQDGSKRSG,inactive
17,EGRNFRCLFG,inactive
18,KAREVGIQWRKWSIIAWNNW,1.45 ± 0.095
19,YKLNMLLGYLLMFTLGIHAV,inactive
20,DLNRYSWSRKRRLCCSHCRG,inactive
21,PCYDWCLQSGR,inactive
22,FICVCSNWGFIQNMITAPDW,2.77 ± 0.074
23,GSVYETNDTELLRVTLR,inactive
24,SNWKGEISIHEGMLGCT,inactive
25,LFGYDSISLINRGCVGGFNV,inactive
26,GNNVTHSRDRCSMWYWVHLL,inactive
27,YTVSFYIQLCTDRQISHRGI,2.34 ± 0.071

row,Substance,amyloid nucleation score
1,VSLGFEFMGFHAGW,1.09 ± 0.15
2,SVSVLHSYYLIYVCRDFFMK,0.865 ± 0.12
3,YITDYNQVSAHTQNKKTMGY,inactive
4,STNGLLTSNS,inactive
5,FLVLTNHRGARVRASCVMDR,inactive
6,TRRQTGYILSTLWLAHCHFR,inactive
7,AHSRWVSQCDITR,inactive
8,SLAMTFYSGIGFYCFSCFFN,2.36 ± 0.059
9,SINCTYPVRND,inactive
10,ILIGWMILWAICLPKLVDDG,inactive
11,GLPLVACLMSEQYCL,inactive
12,TMLYGSIRQSGDMQMSTLSV,inactive
13,YQQSIVHVRRFTYRRAPVVA,-0.46 ± 1.9
14,LIDNRRFRHLLTRNVFVSHH,inactive
15,WYALYSIWVKHTHLCERTVE,inactive
16,MYRITQGHLR,inactive
17,FWKAFRFTDSVFPIKHPNLS,inactive
18,DHRNVRRLKVRLTECIE,inactive
19,FVERMVLVLV,inactive
20,YWSGRIKGTR,inactive
21,NTFVPVLVFGFYYVLIMISN,inactive
22,KSNVLP,inactive
23,SQVLWGTSRGLYYTDRNFTN,inactive
24,CVQRVREYVGT,inactive
25,FVPNVRLTDLWRANKGIVSH,0.404 ± 0.38
26,RPSSQVYGRWEIYIKYL,inactive
27,SWVVDITDRRSLFIDTPRFT,inactive

row,Substance,amyloid nucleation score
1,LRSWNMLPRWVGRYWIFGGK,inactive
2,IDNMAVIYWTVNFVCRVW,1.26 ± 0.085
3,LVEMNFLAVINRFICSSSLP,inactive
4,FLVLLKTCYDSRPWP,1.72 ± 0.094
5,PLSPFYAAWDYMILCVG,inactive
6,MWWGWKRFHSMRNYDAYIQM,inactive
7,MIWWYGVRSMIIDTGWYMHC,inactive
8,ELGFCNWGGLSWLNQDSSGV,-0.085 ± 1
9,QWVVEHRFWLVYNGEHRNSY,0.762 ± 0.15
10,KVYSIYTNKNFGCFDYNWCI,inactive
11,PIFHGD,inactive
12,KSTRF,inactive
13,KCAEL,inactive
14,LMGVDSLLYRKHSGV,inactive
15,FIEVEVWRESSR,inactive
16,GSSRRKKLTV,inactive
17,CSCWTISLFCLWQTLRFPPI,0.438 ± 0.23
18,FLLIIHHST,-0.126 ± 0.6
19,GLMESSCRMGLLNPIQTFTQ,0.036 ± 0.98
20,VPQNVGVLWSRRQEAVVLVS,inactive
21,YPPTGMIWIRILVSV,inactive
22,NICMAI,inactive
23,ICGIDSLN,inactive
24,RNYNVV,inactive
25,DFYLDLITLDNRTTSSTSML,inactive
26,TITCCVYDN,2.13 ± 0.053
